Laboratory results published in patent publication US9897611B2, “Molecule library constructed on the basis of backbone structure of microprotein” (NATIONAL INSTITUTE OF ADVANCED INDUSTRIAL SCIENCE AND …, priority 2012, dated 2018).
Read-outs that look alike come from different tables or passages of the source. Ends that are not written are not given here.

Legend:
[1] = molecular target: T1, human IgG Fc region (Homo sapiens, UniProt P01857); assay: SPR binding affinity analysis on immobilized Fc region prepared by papain digestion of human monoclonal IgG
T1 construct: The Fc region was prepared by the papain digestion of a human monoclonal antibody IgG
Description: The Fc region was prepared by the papain digestion of a human monoclonal antibody IgG (Chugai Pharmaceutical Co., Ltd.) according to the instruction manual attached to Pierce® Fab Preparation Kit (Thermo Fisher Scientific Inc. Pierce) followed by purification by affinity chromatography using MabSelect SuRe (GE Healthcare Japan Corp.), HiTrap DEAE anion-exchange chromatography (GE Healthcare Japan Corp.), and gel filtration chromatography using Superdex 200 (GE Healthcare Japan Corp.).
The Fc region prepared in the section 1) of Example 2 was immobilized onto a sensor chip CM5 (GE Healthcare Japan Corp.) by the amine coupling method.
Subsequently, an example of binding affinity analysis by the surface plasmon resonance method is shown as to the functions of the thioredoxin fusion proteins with the prepared polypeptides. The analysis apparatus used was Biacore T100 (GE Healthcare Japan Corp.). […] The data was processed with Biacore T100 Evaluation Software (GE Healthcare Japan Corp.).
The assay employed Biacore T100 (GE Healthcare Japan Corp.).
Subsequently, the prepared 5 types of polypeptides were analyzed for their binding affinity by surface plasmon resonance. The assay employed Biacore T100 (GE Healthcare Japan Corp.).

[2] = tested on: human Fc region manufactured by Jackson ImmunoResearch Laboratories, Inc.; assay: SPR binding affinity analysis, peptide as analyte on immobilized human Fc region (Jackson ImmunoResearch)
Excerpt: A human Fc region manufactured by Jackson ImmunoResearch Laboratories, Inc. was immobilized onto a sensor chip CM5 (GE Healthcare Japan Corp.) by the amine coupling method using Amine Coupling Kit (GE Healthcare Japan Corp.).

[3] = alanine variants of p17_2, Fc region immobilized on CM5, read-out: KD (nM), binding dissociation constant of p17_2 variant
[4] = analyte on Fc region immobilized on CM5, HBS-T, 25° C., read-out: equilibrium dissociation constant KD

With “p17_D47A: alanine variant of p17_2 polypeptide, SEQ ID NO: 61 (GPGISAFSPGRGVYDPETGTWYDAAWHLGELVWATYYDPETGTWEPAWQRMLGQ; Selected sequence, p17_D47A)” the Kd [1, 3] was 45 nM.

“GVVRQWSGGGGSGGGGRSSIAYGGG [2A1Gly peptide, 2A1 peptide with the chignolin variant region replaced by a glycine-rich linker]” was tested, and the “binding affinity relative to that of the 2A1 peptide” value ([2]; chignolin variant region replaced with glycine-rich linker) was 1/1000 and the Kd ([2]; peptide analyte, Fc immobilized on sensor chip CM5, HBS-T pH 7.4, 25° C., read-out: equilibrium dissociation constant KD) was 23 µM.

For “p17_R50A: alanine variant of p17_2 polypeptide, SEQ ID NO: 63 (GPGISAFSPGRGVYDPETGTWYDAAWHLGELVWATYYDPETGTWEPDWQAMLGQ; Selected sequence, p17_R50A)”, the Kd [1, 3] was 7.8 nM.

“DAAWHLGELVWAT [FcIII-Ala peptide, reference compound]” showed a Kd ([1]; Fc region immobilized on CM5, 0.78-100 μM peptide, read-out: equilibrium dissociation constant KD by Scatchard plot using equilibrium value) of 42000 nM.

In the case of “p17_P46A: alanine variant of p17_2 polypeptide, SEQ ID NO: 60 (GPGISAFSPGRGVYDPETGTWYDAAWHLGELVWATYYDPETGTWEADWQRMLGQ; Selected sequence, p17_P46A)”, the Kd [1, 3] is reported as 5.6 nM.

Substance “p17_W48A: alanine variant of p17_2 polypeptide, SEQ ID NO: 62 (GPGISAFSPGRGVYDPETGTWYDAAWHLGELVWATYYDPETGTWEPDAQRMLGQ; Selected sequence, p17_W48A)” has a Kd [1, 3] of 200 nM.

For “DAAWHLGELVWATYYDPETGTWLPDWQTMAQK [pep21 peptide]”, the “improvement in affinity compared with FcIII-Ala peptide” value [1] was “approximately 420 fold”.

“DAAWHLGELVWATYYDPETGTWQPDWLYMTTR [pep14 peptide]” showed a Kd [1, 4] of 120 nM.

In the case of “p17_2: SEQ ID NO: 47; 54 residues, p17 with Gly, Pro, Gly at the N terminus, from protease cleavage of thioredoxin fusion (GPGISAFSPGRGVYDPETGTWYDAAWHLGELVWATYYDPETGTWEPDWQRMLGQ; Selected sequence, p17_2)”, the “improvement in affinity compared with FcIII-Ala peptide” value [1] is reported as “approximately 26000 fold”, the “improvement in binding affinity compared with pep24 peptide” value [1] is reported as 138 fold and the Kd [1, 4] is reported as 1.6 nM.
